Source: patent publication US20150104459A1 (published 2015)

B1: TCN-556 (5089_K12) (antibody, V domains shown)
VH: QVQLVQSGAEVKKPGASVKVSCKASGYTFIGYDMHWVRQAPGQGLEWMGWINAKRGGTNYAQKFQGRVTMTRDTSISTAYMELNSLRSDDTAVYYCARGVGSRTTIFGVLNPEFDYWGQGTLVTVSS
VL: QSALTQPPSASGSPGQSVTISCTGSSSDVGGYDYVSWYQQHPGKAPKLLIYEVTKRPSGVPDRFSGSKSGNTASLTVSGLQAEDEADYYCSSYAGNYNHVFGPGTKVTVL
B2: TCN-560 (5084_P10) (antibody, V domains shown)
VH: EVQLVESGGGLVQPGGSLRLSCAASGFIFRNYWMSWVRQAPGKGLEWVANIKQDGREKYYVDSLRGRVNISRDNAENSLYLHMNSLRVEDTAVYFCARARMVVVTGDGFDVWGHGTMVTVSS
VL: DIQMTQSPSSLSASVGDRVTITCRASQNIKRYFNWYQQKPGKAPKLLIYAASNLENGVPSRFSGSGSGTDFTLTISSLQPEDFATYYCQQSFSKSWTFGQGTNVDIK

Molecular target: recombinant soluble homotrimeric HA, A/common magpie/Hong Kong/5052/07 (H5N1) (influenza A virus A/common magpie/Hong …)
Assay: microarray, trimeric HA, transfection supernatant

| Binder | Trimeric HA Binding RLU [RLU] |
| --- | --- |
| B1 | 20100 |
| B2 | 30500 |
